A short description of the series: soluble on expression in E. coli; label from the status in PepcDB or PDB records.
Regarding “MGSDKIHHHHHHMPVVDAAWEEWLSSNVARGCSPDSMIDAMVQAGFATDAARVAVHKTFGQNPANPAFAAAAATEAALAKAAPQTYQYDDPPVARGNLIRAYDRDVRVVMRCERPQVIVFADVLSPDECAEMIERSRHRLKRSTTVNPATGKEDVIRNRTSEGIWYQRGEDPFIERMDRRISSLMNWPVENGEGLQILHYGTTGEYRPHFDYFPPDQPGSAVHTAQGGQRVATLVIYLNDVPDGGETIFPEAGMSVAASQGGAVYFRYMNDRRQLDPLTLHGGAPVLAGDKWIMTKWMRERAYG”, the “soluble on expression in E. coli” value is given as “not soluble”.

Turning to “MIDDIRYLIVFAKIAETGSVSGGAEALGLSAATASLHLSRLERNLGRALLYRNSRKLSLTQDGTQLLDTARSMLELYEKGFIEFRQRAVSTRNSLRISMPAVFVNGDFTRHLAAFIEEHPDLDLGIACDDSRHDIIGDGIDIAFRIGDLPDSSLKARHLFLLPRQVVAAPAFLARHAPLEHPRDLQRLEWIGLGMRPDSRLFRHARDDEEVRVDYTPRVRVDSVEASCRLARLGVGLAAPPTYLSDEPIRRGELRAVLPEWRLEPLKVYAVWPPNVPASSIAYTLINRLYEAFNPG”, the “soluble on expression in E. coli” value is reported as “not soluble”. Consider “MGEVKDLGMADHGGFDLKIGARVVLEDVKLGDSIAVNGTCLTVTEFNAEEFTVGLAPETLRKTSLEELKKGSPVNLERALQPVSRMGGHVVQGHVDGTGVIESMEVEGDSLWVKVKADKGLLKYIVPKGFVAVDGTSLTVVDVFDEESCFNFMMIAYTQQNVVIPTKKIGQKVNLEVDIMGKYVERLLTSGGFSKGN”, for which the “soluble on expression in E. coli” value is reported as “soluble”. Turning to “MAHHHHHHMDYRQKAARLPRSAEEKSRWRRVIIILEHCPLAVVRGKYGFELLAERHRAHHARYKQDPAEWRPDVVHQALLHLMDSPLNRAGMLQVFLRTKKGVVIAVDPRLRVPRHMRLFEKMMVSCLYRMKVRAANGSVSLLRVVKNPVTDHIPANCTLIRVEKDGDAVPDIFAYCATCGTNRHADGSTSENVGTATACSSSAGSDAKEPHFAQKHRDLADAKQFRPFAFIIGGMSKGDVDAPYAPRAQVKSIRLGDRGMSAAAACSVIIHGFEEEWLREDNEAC”, the “soluble on expression in E. coli” value is “not soluble”. With “MSLHKKDIIRLLETIAVYMELKGDNPFKVSAFRKAAAALEQDDRSLSEMDDMMSLSGIGKGTYSVIKEYIDEGKSSTLESLQKEVPEGLVPLLKLPGLGGKKIAKLYKELGVHDAESLKEACEQQKVQGLAGFGKKSEEKILQALGEAGKQPERFPIGYALRIAREIEEHLSQFTHIIKFSRAGSLRRARETVKDLDYIIATDHPAEVREQLLELPNIKSVIASGDTKVSVILSFEYETSVDFRLVTEEQFPTTLHHFTGSKDHNIKMRQIAKERGERISEYGVETVETGEIKTFPSEREFYAHFGLPLIPPEIRESEGHHHHHH”, the “soluble on expression in E. coli” value is given as “soluble”. Regarding “MGSDKIHHHHHHMINQVYQLVSPRQFEATFKTIDLHNHNSKVIVRPLYLSICAADLRYYCGNRDSKILSKKLPMSLIHESVGEIVYDSEHRLKNGTKVVMIPNTPSKSHNIIAENYLTSSHFKSSGYDGFMQDYIVMKPDRVVTLPQEIDLSVASYTELVTVSVHAIDRFQSKAIPQFESLGIWGDGNLGYITAVLLKKLYPTTKIIVFGKTLYKLSRFSFVDEIIQIDNIPQHIKIDHAFECVGGKGSQQAIEQIINIINPEGSIALLGVSELPIQVNTRMVLEKGLTIIGSSRSGLKDFEKTIELYRKYPEVLNQLALLKGKEFEINTIEDLITAFEYDISNAWGKTVLKWNI”, the “soluble on expression in E. coli” value is listed as “not soluble”. Consider “MFEKVKVSTCFHVTLLKDYIVFYVSNNLNFASRWPRRRRGQRLLPTALRAMMLNPTEALLAEVSKARTSGARITVEEFIPIYKKVEAACGRSTTLKEFQTLLSHFDREGNGQIMLMELKSMLQNGGEKMTNQEARALKPATGLDTIYRNLNFNHKFTLDHSAIGFLRTNQFFDVQMIPVSRFFTVQDPSNALLSYTQKGIDFFEKLGQFSKEKAAIEEEYSTKLRSLAKKYAKKSEEDDEILKSVSYTSSFNSFLQQLDQIATRHQTSAEHIRGGVVSYVASKTCQMRSSRKNAINDLKTINDKLEDQINEMCKSGKCYLKSFKDAENSYQKFYKADKNLEISRLELEKARALANARNEACELAKQDYSALVRKTNAEQKRYHVELLPVIFARLKAVDKECIADMRQVLQKIVSFDDSLADSTEECRKIMQREVGKIDAEGDAQLVLKSVEATIEQPAPFEIEDLGDPKNCDSRTNDSADGSGGKLLKSSPSKNRIIRNFLGILKEKEADEKPEASNNDQLMYTDKSKPAHVRLSCLRSKIRDMEKQLEQAIQGREGITRLQQAYYTNPQHGNPSACTEPLISYAKKIEKLKMDIHNLKEFYAMLEMSVEEGQERSFGGRDTPDTTRSMSGSSTNQSSSKTIEDVLSGEAGNSSSADDSSKNILRQLFTTPKRLISSPKTSKSSTPTPLRRRAEISSPKILRSSFSGAIRKSLSTPDSVKVETAVTVTALFEFAKSSAETMSIEQGEILLVLEHDHGDGWTRTKNCRKHNEESGFVPTSYLQFPQ”, for which the “soluble on expression in E. coli” value is given as “soluble”. Consider “MGSDKIHHHHHHMVLLDYHMHSLNSTDAHDEISALCAKAIARGLQEIAVTDHFEPSAGHEEYSEYDGRKYFTEIAEARRRFAGKLSIKSGVELGQPHLFPKYSLQLLEEYPYDYVLGSAHRMPNNVDFGEVRYTPENLAAYCASYLTELKALAQWGHYDCLGHLDLVKRYAAKYRLRANLMDYQEQLAEILRIVIDKGKGIEVNTSGLRQSSQECLPDLDIIRLYKELGGEIITVGSDAHWAEDVGKGIQEGLERLKKAGFKYVSVYTNRQPAMIKIGDKSALFTRGGLSA”, for which the “soluble on expression in E. coli” value was “not soluble”. Then “MGSDKIHHHHHHMRILSGMRPTGKLHIGHLVGALENWVKLQEEGNECFYFVADWHALTTHYDDVSKLKEYTRDLVRGFLACGIDPEKSVIFVQSGVKEHAELALLFSMIVSVSRLERVPTYKEIKSELNYKDLSTAGFLIYPVLQAADILIYKAEGVPVGEDQVYHIELTREIARRFNYLYDEVFPEPEAILSRVPKLPGTDGRKMSKSYGNIINLEISEKELEQTILRMMTDPARVRRSDPGNPENCPVWKYHQAFDISEEESKWVWEGCTTASIGCVDCKKLLLKNMKRKLAPIWENFRKIDEDPHYVDDVIMEGTKKAREVAAKTMEEVRRAMNLMF”, with “soluble”. For the sequence “MGSDKIHHHHHHSDNAGRTDKQTATVHDSQKDTSSDSKSDNDKKDTKYKSADEITMDDLMSHDETPAEDFELIDNSDEIVIQKYIGKDPIMVIPDEINGKKVVSLGTYALANDKNIVAIKIGNNIKDLGEGVFGNCENLRYVVLGDSVKTIGCNPFLNTNIQEVTLNDGLQKIGEDDINNTVDAPSKNIGMDLKIPESVTEMHLRDFHLIVKAGSYAEQYAKEYAESNNLTYTVE”, the “soluble on expression in E. coli” value is reported as “not soluble”. Under “RYRAHCDAIALCAPMFGIIIRLPDWMVRHILDWAEGHQRIREEYAIGTGRWRALPFAVNVLTHSRQRYRRNLRFYADEPRLQVGGPTWHWVREGMLAGDEVLANVEKDTAPTLLLQAEEERVVDNLMHDRYCELRAAAGHPCEGGKPLVIEGAYHEILFEKDAMRSVALNAIVEFFNRHT” stands “not soluble”. As for “MSTVTITDLARENVRNLTPYQSARRLGGNGDVWLNANEYPTAVEFQLTQQTLNRYPECQPKAVIENYAQYAGVKPEQVLVSRGADEGIELLIRAFCEPGKDAILYCPPTYGMYSVSAETIGVECRTVPTLDNWQLDLQGISDKLDGVKVVYVCSPNNPTGQLINPQDFRTLLELTRGKAIVVADEAYIEFCPQASLAGWLAEYPHLAILRTLSKAFALAGLRCGFTLANEEVINLLMKVIAPYPLSTPVADIAAQALSPQGIVAMRERVAQIIAEREYLIAALKEIPCVEQVFDSETNYILARFKASSAVFKSLWDQGIILRDQNKQPSLSGCLRITVGTREESQRVIDALRAEQV”, the “soluble on expression in E. coli” value is “soluble”. Then “MGSDKIHHHHHHMKRVERVIITCAVTGSIHTPSMSPYLPVTPEQIAADSVAAAQAGAAMLHLHARNPRTGRPEQTPERFMEFLPRIREQCGAILNITTGGGLGMTLEERLAPAIAARPEVASMNMGSLNFNISGAAGKIRQFQHEWEKPYLEGTNDFILSNTFSQIEHGMRVLGESGTRFEFECYDVGHLYNLAHFVDRGLVKPPFFVQCIFGILGGIGADPENLLHMRAIADRLFGADYLLSVLAAGRHQMPFVSLSAILGGSVRVGLEDSLFIARHQLARSNAEQVAKIRRIVEELGLTVATADEARAMLATKGGDNVGF”, with “not soluble”; and “MFEAKLANAGLLKKIVESIKDLVTDAPFDCSETAMSLQAMDSSHVALVSLKLEVGLFDTYRCDRTINLGLSLANMSKALKCANNDDTCMLKYEENEGDSIIFTFADPKRDKTQDVTVKMMDIDSEHLGIPDQDYAVVCEMPAGEFQKTCKDLSTFSDSLNITATKAGIVFTGKGDIGSSVVTYSPSSNTDDETEAVTLEVKDPVNVNFSIKYMNQFTKATALSDRVRLSLCNDVPVVVEYPIEENGYLRFYLAPKIDDDENMD”, with “soluble”. On to “MGSDKIHHHHHHMILSRGRNYVFIHIPKTGGTALALALESRAMAGDEMLGDTPKAVKRRRRLHGTETRGRLWKHSTLADIEGLASREELRQMFAFTLVRNPFDRVVSLYHWLKEQSFDHPMVPLAHSLPFTSFVTDPLVMRALKSQPALSYMMQSDGYEHCSLYIRLEYFAKDAAPLFDHLGFALELPRVNESRRDPDWRVYYDSQAVDAVRTCCQLEIERFEYSFNDYPLSL”, for which the “soluble on expression in E. coli” value was “not soluble”.

With “MGSDKIHHHHHHMHACGDAVLFLPPNPFLDLRPVPHTSWARLPPMIRLAVLSDLHANLEATLAVHADVQRRGIQEIWVLGDLVGKGPRPREVVEWTQAHASRVIQGNWDARVAGATNRPQDLWPRSKLTPAQLAYLAGLPYGIEEQFSGAWWRFVHASSKGLFHRLYPHSSLAEQLEAYMPNPQFGLKVHADALVYADVHETLMLDVEGRPLINTGSVGNPLDSTLPSYLILEFDPHSPAHSATFVRLTYNRDAEIAAAEASGMPFTREYVAELLTGAYQKRRARTGE”, the “soluble on expression in E. coli” value was “not soluble”. Under “MAHHHHHHMSSPFFGEQRKTRHNRSCSSCDSLPRYAASPPCHPQYAKVDRAAPSVSSPTFSSVPPSPKFPALCMHAMSHTNSTVPSSKLPFSNSVTGNGAALIGTLASFDSEAPRGRPASVAEDGAASGSSSGLSRAAVLMSGRGDASPPFSPQPSGSVLAVFCPLTSKAWQSGTLRDGIAFDVDTTSKVSTISPQTGLQSPLLFSSGWSQQSVSAAAQGTPPSFMGTPGQSLISAGAEGDDAEDTPHSCGAMYSPNHSVSLLPAPKVFVSVYPVQSPEPFATKFTGSPVFEVSLTTPPSIRAPQTGAARGAGATPAPSSRLPSESLEQYSLLRSPILHSLTPLSISPSAPLSPGFGCITGTEPMQSRLSRHRLATSAGSEQLPVRTSNDMRSRNAAVASPPPAAVPSVNSNHESLSDRLVSPARRSYRCPLPSSNEASLSSFFAVDDAGLHANLSMTQASEEDAAHRAASATLPRVCSSKDTEAEEGVAAALAPDTTDDPFEAFWDISPAAQWGGSVTEMLPRITTSSAPFETGSASRSVTAFASGTHEKDSHSSEEFNQNNRLSCVSMERHRNTILHRPSAAQQRNTILHRPSVVQQRNSVNRSVDTQRTTSKTMTLQQRQRRFSLQQEDSIEIKRRSYA” stands “not soluble”; under “MSIESKIRQLIDQNGYITCDVLMQEVLNLNPTSYYKQVKSLANEGDFVTAPEISQLFGEIIGLWCIREWQRIGCPKSLSLVELGPGRGLLMRDLLRTAKLVPEFYKALSIELIEINKNFIAYQKANLQDINLPISHQSFVEDIPKKPTIIIANEFFDAIPIKQYIKVKELWYERIFVVQPVDERIKYDKISVNKQLQEYLLCTHIEAKDGAVLEESYKSIEIIKFIAQHLKRLSGSGLIIDYGYDIAPNGRTRYQYNQTLQAVKNHKYCPILENLGEADLSAHVDFYALKTVAKNSKINVIDTISQRDFLIENGILLRKQTLQDKLNDRHLAKFAYREEFKGDTKRSTAAYTLVREDASIGSTYKLPLEVEFGKMSEQAQIIERQVERLISPKQMGELFKVLQIMN”, “not soluble”.

(Values after the DeepSol protein solubility set.)
